The values below come from EP2441771A1, “New 12alpha-hydroxysteroid dehydrogenase mutants, method for their manufacture and application thereof” (PharmaZell GmbH, priority 2010, dated 2012).

For data set [1], the system named is NC(=O)c1ccc[n+]([C@@H]2O[C@H](COP(=O)([O-])OP(=O)(O)OC[C@H]3O[C@@H](n4cnc5c(N)ncnc54)[C@H](OP(=O)(O)O)[C@@H]3O)[C@@H](O)[C@H]2O)c1. Kind of data set: Enzyme kinetics (Michaelis-Menten) in microtiter plate photometer, cell lysate. The settings on record: other: WT; constant 10 mM Cholsäure, 2 µM to 100 µM NADP^+ (16 concentrations); nonlinear regression. In kind it is biochemical, Clostridium sp. group P strain 48-50. The source says: (§1) Für jede der Mutanten sowie für das Wildtyp-Enzym wurden Kinetikmessungen im Mikrotiterplattenphotometer durchgeführt, indem die Umsatzraten der Enzyme sowohl mit gleichbleibenden Substratkonzentrationen bei variierten Kofaktorkonzentrationen als auch vice versa aufgezeichnet wurden. Zur Bestimmung der spezifischen Enzymaktivität wurden die Enzymkonzentrationen im Zelllysat densitometrisch bestimmt.
(§2) Zur Ermittlung der Abhängigkeit der Substratumsatzgeschwindigkeit von der Substratkonzentration wurde eine Kofaktorkonzentration von 100 µM NADP^+ eingesetzt, während die Substratkonzentration über einen Bereich von 6 µM bis 10 mM Cholsäure mit 32 verschiedenen Konzentrationen variiert wurde.
(§3) Zur Ermittlung der Abhängigkeit der Substratumsatzgeschwindigkeit von der Kofaktorkonzentration wurde eine Substratkonzentration von 10 mM Cholsäure bezogen auf das Reaktionsvolumen eingesetzt, während die Kofaktorkonzentration über einen Bereich von 2 µM bis 100 µM NADP^+ mit 16 verschiedenen Konzentrationen beim Wildtypprotein bzw. über einen Bereich von 2 µM bis 1000 µM NADP^+ mit 24 verschiedenen Konzentrationen bei den beiden Mutanten variiert wurde (jeweils bezogen auf den Raktionsansatz).
(§4) Über das eingesetzte Volumen an Zelllysat lässt sich die volumenbezogene Enzymaktivität berechnen. Zusammen mit den bestimmten Enzymkonzentrationen lassen sich die spezifischen Enzymaktivitäten berechnen. […]

In data set [2] the test system is C[C@H](CCC(=O)O)[C@H]1CC[C@H]2[C@@H]3[C@H](O)C[C@@H]4C[C@H](O)CC[C@]4(C)[C@H]3C[C@H](O)[C@]12C. The description is as above. In kind it is biochemical, Clostridium sp. group P strain 48-50. The conditions noted are these: other: WT; constant 100 µM NADP^+, 6 µM to 10 mM Cholsäure (32 concentrations); nonlinear regression.
Excerpt: as §1, §2, §3, §4

Take “12α-HSDH (WT), Wildtyp-Enzym, Clostridium sp. group P strain 48-50, SEQ ID NO:6 (Clostridium sp. ATCC 29733)”: the figures for the Michaelis-Menten constant (Km) in data set [1] and in data set [2] were 21,4 ± 2,3 µM and 136 ± 12 µM, respectively.

In general, Km refers to the substrate concentration at which the rate is half of its maximum.
